In patent publication US20240425569A1 (VISTERRA, published 2024):

molecular target: T1, EDIII-DV4 (E protein domain III of dengue virus serotype DV-4) (dengue virus serotype DV-4, UniProt P09866 572-679)
T1 construct: also called DENV-4
T1 sequence (P09866 572-679, tags left off): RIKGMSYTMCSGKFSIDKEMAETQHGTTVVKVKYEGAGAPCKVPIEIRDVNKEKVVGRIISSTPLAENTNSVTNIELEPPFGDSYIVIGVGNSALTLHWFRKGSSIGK

Row | Binder | Kd [nM]
1 | C41 (antibody, V domains shown) VH: VKLLEQSGAELVKPGASVRLSCTASGFNIKDVYMSWVKQRPEQGLEWIGRIDPENGDTKYDPKFQGKATITADTSSNTAYLHLSSLTSGDTAVYYCSRGWEGFAYWGQGTLVTVSA VL: ELVMTQTPASLAVSLGQRATISCRASENVDKYGNSFMHWYQQKAGQPPKLLIYRASELQWGIPARFSGSGSRTDFTLTINPVEADDVATYFCQRSNEVPWTFGGGTKLEIK | 2.56
2 | B48+V2L (antibody, V domains shown) VH: QLQLVQSGAEVKKPGASVKVSCKAGFNIKDTYMSWVRQAPEQGLEWMGRIDPENGDTKYDPKLQGRVTMTADTSTNTAYMELRSLRSDDTAVYYCARGWEGFAYWGQGTLVTVSS VL: DIVMTQSPASLAVSLGERATISCRASENVDKYGNSFMHWYQQKPGQPPKLLIYRASELQWGVPDRFSGSGSGTDFTLTISSLQAEDVAVYYCQRSNEVPWTFGQGTKLEIK | 23.6
3 | B48+InsE6 (antibody, V domains shown) VH: VQLVEQSGAEVKKPGASVKVSCKAGFNIKDTYMSWVRQAPEQGLEWMGRIDPENGDTKYDPKLQGRVTMTADTSTNTAYMELRSLRSDDTAVYYCARGWEGFAYWGQGTLVTVSS VL: DIVMTQSPASLAVSLGERATISCRASENVDKYGNSFMHWYQQKPGQPPKLLIYRASELQWGVPDRFSGSGSGTDFTLTISSLQAEDVAVYYCQRSNEVPWTFGQGTKLEIK | 26.9
4 | A48+InsE6 (antibody, V domains shown) VH: VQLVEQSGAEVKKPGASVKVSCKASGFNIKDVYMSWVRQAPEQGLEWMGRIDPENGDTKYDPKLQGRVTMTADTSTNTAYMELRSLRSDDTAVYYCARGWEGFAYWGQGTLVTVSS VL: DIVMTQSPASLAVSLGERATISCRASENVDKYGNSFMHWYQQKPGQPPKLLIYRASELQWGVPDRFSGSGSGTDFTLTISSLQAEDVAVYYCQRSNEVPWTFGQGTKLEIK | 19.5
5 | A48+V2L (antibody, V domains shown) VH: QLQLVQSGAEVKKPGASVKVSCKASGFNIKDVYMSWVRQAPEQGLEWMGRIDPENGDTKYDPKLQGRVTMTADTSTNTAYMELRSLRSDDTAVYYCARGWEGFAYWGQGTLVTVSS VL: DIVMTQSPASLAVSLGERATISCRASENVDKYGNSFMHWYQQKPGQPPKLLIYRASELQWGVPDRFSGSGSGTDFTLTISSLQAEDVAVYYCQRSNEVPWTFGQGTKLEIK | 21.3

molecular target: T1, EDIII-DV4 (E protein domain III of …); remark: another data set of the same source

Row | Binder | Kd [nM]
6 | antibody D148 (antibody, V domains shown) VH: QVQLVQSGAEVKKPGASVKVSCKASYFNIKDVYMSWVRQAPEQGLEWMGRIDPENGDTKYDPKLQGRVTMTADTSTNTAYMELRSLRSDDTAVYYCARGWEGFAYWGQGTLVTVSS VL: DIVMTQSPASLAVSLGERATISCRASENVDKYGNSFMHWYQQKPGQPPKLLIYRASELQWGVPDRFSGSGSGTDFTLTISSLQAEDVAVYYCQRSNEVPWTFGQGTKLEIK | 18
7 | antibody D128 (antibody, V domains shown) VH: QVQLVQSGAEVKKPGASVKVSCKASAWNIKDVYMSWVRQAPEQGLEWMGRIDPENGDTKYDPKLQGRVTMTADTSTNTAYMELRSLRSDDTAVYYCARGWEGFAYWGQGTLVTVSS VL: DIVMTQSPASLAVSLGERATISCRASENVDKYGNSFMHWYQQKPGQPPKLLIYRASELQWGVPDRFSGSGSGTDFTLTISSLQAEDVAVYYCQRSNEVPWTFGQGTKLEIK | 20.8
8 | antibody D108 (antibody, V domains shown) VH: QVQLVQSGAEVKKPGASVKVSCKASYWNIKDVYMSWVRQAPEQGLEWMGRIDPENGDTKYDPKLQGRVTMTADTSTNTAYMELRSLRSDDTAVYYCARGWEGFAYWGQGTLVTVSS VL: DIVMTQSPASLAVSLGERATISCRASENVDKYGNSFMHWYQQKPGQPPKLLIYRASELQWGVPDRFSGSGSGTDFTLTISSLQAEDVAVYYCQRSNEVPWTFGQGTKLEIK | 18.3
9 | D168 (antibody, V domains shown) VH: QVQLVQSGAEVKKPGASVKVSCKASGYNIKDVYMSWVRQAPEQGLEWMGRIDPENGDTKYDPKLQGRVTMTADTSTNTAYMELRSLRSDDTAVYYCARGWEGFAYWGQGTLVTVSS VL: DIVMTQSPASLAVSLGERATISCRASENVDKYGNSFMHWYQQKPGQPPKLLIYRASELQWGVPDRFSGSGSGTDFTLTISSLQAEDVAVYYCQRSNEVPWTFGQGTKLEIK | 324
